From patent US20260152767A1 (TRUSTEES OF COLUMBIA UNIVERSITY IN THE CITY OF NEW YORK, published 2026) come the findings set out here.

First the molecules themselves.
B1: Allomuricauda taeanensis (Ata) rpoE-associated nuclease-dead Cas12f (other)
chain: MGKSTLKHTRKIQILIDLPTKDEKKEVMDMMYQWRDRCFRAANIIVTHLYVQEMIKDFFYLSEGIKYKLADEKKDEKGILQRSRMNTTYRVVSDRFKGEMPTNILSTLNHGLISSFNKNRVQYWKGERSLPNFKKDMAFPFGLQGISRLVYDEEKKAFCFRLYRVPFKTYLGKDFTDKRMLLERLVKGDVKLCASNIQLNGGKIFWLAVFEIEKEKHSLKPEVIAEASLSLEYPIVVKTGKNRLTIGTKEEFLYRRLAIQAARRRTQVGATYSRSGKGKKRKLKAVDKYHKTESNYVAHRIHVYSRKLIDFCIKHQAGTLILMNQEDKVGIAKEEEFVLRNWSYYELMTKIKYKAEKAGIELIIG
notes: Untagged dCas12f, co-expressed in E. coli with its gRNA from the Ata plasmid in which the FLAG tag sits on RpoE or on HTH; also called Ata dCas12f; AtadCas12f
B2: Allomuricauda taeanensis (Ata) sigma factor E RpoE with N-terminal 3xFLAG tag (other)
chain: MLYSDFELLKIGDTSALDHIHAKYFRSILWIGRQWLNDDFLIESLVQDTFLKLWVNRDKLESPEHIFYFLRFVMKRECISYYRKPKYKFHKKVNSLEDYDNYQDYMVGYDPVNDSENLDEQESTQKSFDHIKSILPLLNADKRHLIELCLKYGFQYKAISKVMGKGIHETSREIKEAIEDIKTIVHKGNELGSNDTMTNEIKFSGELSEEQAKVLKMRCDLKYSFSEIAKELELSEKEVHQEFMKAYKLMKANHQLQLQSA
notes: Expressed in E. coli together with dCas12f, HTH and gRNA; also called FLAG-RpoE; Ata RpoE; not shown: N-terminal 3xFLAG tag

The target in experiment [1] is B2. Kind of experiment: summary of the ChIP-seq and ChIP-qPCR data on the Ata system in E. coli.
For experiment [2], the target named is B1. In words: ChIP-seq (anti-FLAG) of N-terminally 3xFLAG-tagged Ata RpoE in E. coli co-expressing Ata dCas12f and gRNAs retargeted to four genomic sites. The protocol: After conjugating, the antibody-magnetic beads were added to the sonication supernatant and incubated at 4° C. for 12-16 h. Then, the magnetic beads were washed and immunoprecipitated protein bound to crosslinked DNA was eluted. Reverse-crosslinking was performed at 65° C. overnight. Samples were treated with RNase A (Thermo Fisher Scientific) and proteinase K (Thermo Fisher Scientific) and purified using QIAquick spin columns (QIAGEN). ChIP-sequencing libraries were generated using the NEBNext Ultra II DNA Library Prep Kit for Illumina (NEB). Size selection (˜450 bp fragment size) was performed using AMPure XP Beads (Beckman Coulter) and samples were sequenced using the Illumina NextSeq 500 platform in paired-end mode with 75 cycles per end. Sequencing reads were mapped to the E. coli K-12 genome (GenBank NC_000913.3) using bowtie2 and normalized using deepTools bamCoverage and visualized in IGV using counts per million (CPM). […]
Re-programmability of gRNAs for RNA-guided DNA-targeting of dCas12f and RpoE To test whether the gRNA and TAM were correctly determined by RIP-seq and ChIP-seq, new guide sequences were cloned for one representative system (here, Ata), targeting 4 different DNA sites tiled across the E. coli K-12 genome. […]

In the case of B1, in experiment [1], the binding result is “binds”.

Turning to B2, in experiment [2], the binding result is “binds”.
